# Patent US20130251703A1 (Novartis, published 2013)
# Numbering of substitutions follows the chain as printed.
# B1: MOR12604 (antibody, V domains shown)
# VH: QVQLVQSGAEVKKPGSSVKVSCKASGGTFSSYAISWVRQAPGQGLEWMGLIIPRYGKARYAQKFQGRVTITADESTSTAYMELSSLRSEDTAVYYCARNWPYYYMDFWGQGTLVTVSS
# VL: DIVLTQSPATLSLSPGERATLSCRASQNIVFNLAWYQQKPGQAPRLLIYDASNRATGVPARFSGSGSGTDFTLTISSLEPEDFAVYYCQQKKSMPLTFGQGTKVEIKR
# notes: Tested as IgG
# B2: MOR14533 (antibody, human IgG1, kappa, V domains shown)
# VH: B1 VH
# VL: EIVLTQSPATLSLSPGERATLSCRASQNIVFNLAWYQQKPGQAPRLLIYDASNRATGIPARFSGSGSGTDFTLTISSLEPEDFAVYYCQQTKSKPSPTFGQGTKVEIKR
# notes: Tested as IgG
# B3: MOR14534 (antibody, human IgG1, kappa, V domains shown)
# VH: B1 VH
# VL: B1 VL with D1E, V58I, K91T, S93N, M94R, L96P
# notes: Tested as IgG
# B4: MOR12615 (antibody, human IgG1, lambda, V domains shown)
# VH: QVQLVQSGAEVKKPGASVKVSCKASGYTFTSYDIHWVRQAPGQGLEWMGRIDPYSGNTNYAQKFQGRVTMTRDTSISTAYMELSRLRSEDTAVYYCARGSFYTRDSYFDVWGQGTLVTVSS
# VL: DIALTQPASVSGSPGQSITISCTGTSSDVGTYNQVSWYQQHPGKAPKLMIYGVSKRPSGVSNRFSGSKSGNTASLTISGLQAEDEADYYCSSRDLIGHYVFGGGTKLTVLG
# notes: Tested as IgG
# Key:
# [1] = molecular target: T1, human HER3 endogenously expressed on human cancer cells (SK-Br-3, BT-474, MCF7) (human, UniProt P21860 20-1342); experiment: cell-based or functional assay
# [2] = molecular target: T1, human HER3 endogenously expressed on …; experiment: cell-based or functional assay; remark: listed apart in the source
# [3] = molecular target: T1, human HER3 endogenously expressed on …; experiment: cell-based or functional assay; remark: listed apart in the source
# [4] = molecular target: T2, Hu HER3: CD33-[Human HER3, residues 20-640]-TAG (human, UniProt P21860 20-640); experiment: solution equilibrium titration (SET), IgG, ECL read-out
# T2 construct: also called hu HER3-Tag; HER3-Tag; not shown: C-terminal TAG (e.g. FLAG TAG)
# [5] = molecular target: T3, Cyno HER3: CD33-[Cyno HER3, residues 20-643]-TAG (cynomolgus monkey, UniProt G7PIG5 20-643); experiment: as above
# T3 construct: also called cy HER3-Tag; not shown: C-terminal TAG (e.g. FLAG TAG)
# [6] = molecular target: T4, Mu HER3: CD33-[Murine HER3, residues 20-643]-TAG (mouse, UniProt Q61526 20-643); experiment: as above
# T4 construct: also called mu HER3-Tag; not shown: C-terminal TAG (e.g. FLAG TAG)
# [7] = molecular target: T5, Rat HER3: CD33-[Rat HER3, residues 20-643]-TAG (rat, UniProt Q62799 20-643); experiment: as above
# T5 construct: also called ra HER3-Tag; not shown: C-terminal TAG (e.g. FLAG TAG)
# [8] = molecular target: T6, HER3 D1-2: CD33-[Human HER3, residues 20-329]-TAG (human, UniProt P21860 20-329); experiment: HER3 domain binding ELISA: recombinant protein coated on the plate, antibody titrated; the y axis reads 'Fluorescence Units'
# T6 construct: also called D1-2-Tag; domains 1 and 2; not shown: C-terminal TAG (e.g. FLAG TAG)
# Protocol: (§1) All wells were then washed with PBS/0.1% Tween-20, blocked with PBS/1% BSA/0.1% Tween-20 and washed with PBS/0.1% Tween-20. Anti-HER3 antibodies were added to the relevant wells up to a final concentration of 10 μg/mL and incubated at room temperature. Plates were washed with PBS/0.1% Tween-20 prior to the addition of the appropriate peroxidase linked detection antibody diluted 1/10000 in PBS/1% BSA/0.1% Tween-20. The detection antibodies used were goat anti-mouse (Pierce, 31432), rabbit anti-goat (Pierce, 31402) and goat anti-human (Pierce, 31412). Plates were incubated at room temperature before washing with PBS/0.1% Tween-20. 100 μl TMB (3,3′,5,5′ tetramethyl benzidine) substrate solution (BioFx) was added to all wells before stopping the reaction with 50 μl 12.5% H₂SO₄. […] Where appropriate, dose response curves were analyzed using Graphpad Prism.
# [9] = molecular target: T7, HER3 D2: CD33-[Human HER3, residues 185-329]-TAG (human, UniProt P21860 185-329); experiment: as above
# T7 construct: also called D2-Tag; domain 2; not shown: C-terminal TAG (e.g. FLAG TAG)
# Protocol: as §1
# [10] = molecular target: T1, human HER3 endogenously expressed on …; experiment: FACS titration of IgG on SK-Br-3 cells (endogenous HER3)
# Protocol: The binding of antibodies to endogenous human antigen expressed on human cancer cells was accessed by FACS. In order to determine antibody EC₅₀ values SK-Br-3 cells were harvested with accutase and diluted to 1×10⁶ cells/mL in FACS buffer (PBS/3% FBS/0.2% NaN₃). 1×10⁵ cells/well were added to each well of a 96-well plate (Nunc) and centrifuged at 210 g for 5 minutes at 4° C. before removing the supernatant. Serial dilutions of test antibodies (diluted in 1:4 dilution steps with FACS buffer) were added to the pelleted cells and incubated for 1 hour on ice. The cells were washed and pelleted three times with […] FACS buffer. PE conjugated goat anti-human IgG (Jackson ImmunoResearch) diluted 1/200 with FACS buffer were added to the cells and incubated on ice for 1 hour. Additional washing steps were performed three times with 100 μL FACS buffer followed by centrifugation steps at 210 g for 5 minutes at 4° C. Finally, cells were resuspended in 200 μL FACS buffer and fluorescence values were measured with a FACSArray (BD Biosciences). The amount of cell surface bound anti-HER3 antibody was assessed by measuring the mean channel fluorescence.
Binder,BT474 pHER3 % inhibition [1],BT474 pHER3 IC50 [1],MCF7 pHER3 % inhibition [1],MCF7 pHER3 IC50 [1],SK-Br-3 pHER3 % inhibition [1],SK-Br-3 pHER3 IC50 [1],BT-474 pAkt % inhibition [2],BT-474 pAkt IC50 [2],MCF7 pAkt % inhibition [2],MCF7 pAkt IC50 [2],SK-Br-3 pAkt % inhibition [2],SK-Br-3 pAkt IC50 [2],MCF7 proliferation % inhibition [3],MCF7 proliferation IC50 [3],SK-Br-3 proliferation % inhibition [3],SK-Br-3 proliferation IC50 [3],Kd [4],Kd [5],Kd [6],Kd [7],other results
B1,62%,142 pM,79%,57 pM,71%,29 pM,70%,225 pM,74%,235 pM,85%,17 pM,39%,0.073 nM,42%,0.015 nM,1.1 nM,2.2 nM,1.9 nM,5.2 nM,binding result [8]: no binding (tested: 10 µg/ml); binding result [9]: no binding (tested: 10 µg/ml)
B2,–,–,67%,50 pM,68%,20 pM,–,–,–,–,–,–,–,–,46%,0.026 nM,0.64 nM,2.95 nM,2 nM,9.65 nM,EC50 [10]: 0.042 nM
B3,–,–,71%,16 pM,63%,10 pM,–,–,–,–,–,–,–,–,40%,0.027 nM,2.15 nM,6.35 nM,4 nM,30 nM,EC50 [10]: 0.028 nM
B4,56%,421 pM,75%,447 pM,71%,179 pM,63%,466 pM,78%,815 pM,86%,101 pM,42%,2.54 nM,40%,0.121 nM,0.102 nM,0.257 nM,0.336 nM,0.31 nM,BT-474 proliferation % inhibition [3]: 35%; BT-474 proliferation IC50 [3]: 0.459 nM; binding result [8]: no binding (tested: 10 µg/ml); binding result [9]: no binding (tested: 10 µg/ml)
